# Experimental data reported in patent US11466066B2, “Variants of human BMP7 protein” (ELI LILLY AND COMPANY, priority 2017, dated 2022).
# Tested on: MFc7 mouse renal myofibroblasts
# Assay: MFc7 bioassay
# Assay type: cell-based
# Conditions: EC50 of wild type BMP7 protein/EC50 of the variant; multiple amino acid changes (Table 3)
# Experimental: MFc7 mouse renal myofibroblasts (mouse kidney fibroblast cell line) may be maintained under routine cell culture conditions in OPTI-MEM/10% FBS medium. The cells may be plated in 10 cm tissue culture plates at a seeding density of 500,000 cells/plate. After approximately 48 hours, the cells may be washed with phosphate buffered saline (PBS) prior to the addition of OPTI-MEM/2% dialyzed fetal bovine serum (FBS) medium containing 1 μg/ml BMP7 protein or 1 μg/ml of a BMP7 protein variant and incubated for 48 hours. After treatment the cells may be rinsed with PBS and stored at −80° C. for 20 minutes. After thawing the cells at 37° C. for 30 minutes 100 μl of para-nitrophenyl phosphate (PNPP) may be added. The plate may be incubated at 37° C. for 1 hour. The absorbance at 405 nm may be read utilizing a plate reader. The average relative potency (EC50 of wild type BMP7 protein/EC50 of the BMP7 protein variant) of certain human BMP7 protein variants of the present invention may be calculated based on such readings.
row,Molecule,Average Relative Potency
1,"Y65G/I86L/T89A/N110G: human mature BMP7 protein variant, SEQ ID NO: 5 (protein) STGSKQRSQNRSKTPKNQEALRMANVAENSSSDQRQACKKHELYVSFRDLGWQDWIIAPEGYAAGYCEGECAFPLNSYMNATNHALVQALVHFINPETVPKPCCAPTQLGAISVLYFDDSSNVILKKYRNMVVRACGCH",10
2,"Y65G/I86L/N110G/Y128F: human mature BMP7 protein variant, SEQ ID NO: 6 (protein) STGSKQRSQNRSKTPKNQEALRMANVAENSSSDQRQACKKHELYVSFRDLGWQDWIIAPEGYAAGYCEGECAFPLNSYMNATNHALVQTLVHFINPETVPKPCCAPTQLGAISVLYFDDSSNVILKKFRNMVVRACGCH",7
3,"Y65G/I86L/N110G: human mature BMP7 protein variant, SEQ ID NO: 10 (protein) STGSKQRSQNRSKTPKNQEALRMANVAENSSSDQRQACKKHELYVSFRDLGWQDWIIAPEGYAAGYCEGECAFPLNSYMNATNHALVQTLVHFINPETVPKPCCAPTQLGAISVLYFDDSSNVILKKYRNMVVRACGCH",8.7
4,"Y65G/T89A/N110G/Y128F: human mature BMP7 protein variant, SEQ ID NO: 9 (protein) STGSKQRSQNRSKTPKNQEALRMANVAENSSSDQRQACKKHELYVSFRDLGWQDWIIAPEGYAAGYCEGECAFPLNSYMNATNHAIVQALVHFINPETVPKPCCAPTQLGAISVLYFDDSSNVILKKFRNMVVRACGCH",6.2
5,"Y65G/V114M: human mature BMP7 protein variant, SEQ ID NO: 11 (protein) STGSKQRSQNRSKTPKNQEALRMANVAENSSSDQRQACKKHELYVSFRDLGWQDWIIAPEGYAAGYCEGECAFPLNSYMNATNHAIVQTLVHFINPETVPKPCCAPTQLNAISMLYFDDSSNVILKKYRNMVVRACGCH",5.0
6,"F93V/N110G: human mature BMP7 protein variant F93V/N110G, SEQ ID NO: 4 (protein) STGSKQRSQNRSKTPKNQEALRMANVAENSSSDQRQACKKHELYVSFRDLGWQDWIIAPEGYAAYYCEGECAFPLNSYMNATNHAIVQTLVHVINPETVPKPCCAPTQLGAISVLYFDDSSNVILKKYRNMVVRACGCH",9

# Same assay, conditions: EC50 of wild type BMP7 protein/EC50 of the variant; single amino acid change (Table 4)
row,Molecule,Average Relative Potency
1,"I86V: SEQ ID NO: 2 having the single amino acid mutation I86V (protein, listed as Homo sapiens) STGSKQRSQNRSKTPKNQEALRMANVAENSSSDQRQACKKHELYVSFRDLGWQDWIIAPEGYAAYYCEGECAFPLNSYMNATNHAVVQTLVHFINPETVPKPCCAPTQLNAISVLYFDDSSNVILKKYRNMVVRACGCH",17.4
2,"T89A: SEQ ID NO: 2 having the single amino acid mutation T89A (protein, listed as Homo sapiens) STGSKQRSQNRSKTPKNQEALRMANVAENSSSDQRQACKKHELYVSFRDLGWQDWIIAPEGYAAYYCEGECAFPLNSYMNATNHAIVQALVHFINPETVPKPCCAPTQLNAISVLYFDDSSNVILKKYRNMVVRACGCH",3
3,"I86L: SEQ ID NO: 2 having the single amino acid mutation I86L (protein, listed as Homo sapiens) STGSKQRSQNRSKTPKNQEALRMANVAENSSSDQRQACKKHELYVSFRDLGWQDWIIAPEGYAAYYCEGECAFPLNSYMNATNHALVQTLVHFINPETVPKPCCAPTQLNAISVLYFDDSSNVILKKYRNMVVRACGCH",5.9
